B1: Serine/threonine-protein kinase BSK1 (Arabidopsis thaliana (Mouse-ear cress)), Q944A7 (parent)
chain: MGCCQSLFSGDNPLGKDGVQPQPLSQNNHGGATTADNGGSGGASGVGGGGGGGGIPSFSEFSFADLKAATNNFSSDNIVSESGEKAPNLVYKGRLQNRRWIAVKKFTKMAWPEPKQFAEEAWGVGKLRHNRLANLIGYCCDGDERLLVAEFMPNDTLAKHLFHWENQTIEWAMRLRVGYYIAEALDYCSTEGRPLYHDLNAYRVLFDEDGDPRLSCFGLMKNSRDGKSYSTNLAYTPPEYLRNGRVTPESVTYSFGTVLLDLLSGKHIPPSHALDMIRGKNIILLMDSHLEGKFSTEEATVVVELASQCLQYEPRERPNTKDLVATLAPLQTKSDVPSYVMLGIKKQEEAPSTPQRPLSPLGEACSRMDLTAIHQILVMTHYRDDEGTNELSFQEWTQQMKDMLDARKRGDQSFREKDFKTAIDCYSQFIDVGTMVSPTVFGRRSLCYLLCDQPDAALRDAMQAQCVYPDWPTAFYMQSVALAKLNMNTDAADMLNEAAQLEEKRQRGGRGS

Variants of: B1
Settings: with bri1_arath BRI1, O22476
bri1_arath BRI1, O22476, sequence (O22476 whole entry): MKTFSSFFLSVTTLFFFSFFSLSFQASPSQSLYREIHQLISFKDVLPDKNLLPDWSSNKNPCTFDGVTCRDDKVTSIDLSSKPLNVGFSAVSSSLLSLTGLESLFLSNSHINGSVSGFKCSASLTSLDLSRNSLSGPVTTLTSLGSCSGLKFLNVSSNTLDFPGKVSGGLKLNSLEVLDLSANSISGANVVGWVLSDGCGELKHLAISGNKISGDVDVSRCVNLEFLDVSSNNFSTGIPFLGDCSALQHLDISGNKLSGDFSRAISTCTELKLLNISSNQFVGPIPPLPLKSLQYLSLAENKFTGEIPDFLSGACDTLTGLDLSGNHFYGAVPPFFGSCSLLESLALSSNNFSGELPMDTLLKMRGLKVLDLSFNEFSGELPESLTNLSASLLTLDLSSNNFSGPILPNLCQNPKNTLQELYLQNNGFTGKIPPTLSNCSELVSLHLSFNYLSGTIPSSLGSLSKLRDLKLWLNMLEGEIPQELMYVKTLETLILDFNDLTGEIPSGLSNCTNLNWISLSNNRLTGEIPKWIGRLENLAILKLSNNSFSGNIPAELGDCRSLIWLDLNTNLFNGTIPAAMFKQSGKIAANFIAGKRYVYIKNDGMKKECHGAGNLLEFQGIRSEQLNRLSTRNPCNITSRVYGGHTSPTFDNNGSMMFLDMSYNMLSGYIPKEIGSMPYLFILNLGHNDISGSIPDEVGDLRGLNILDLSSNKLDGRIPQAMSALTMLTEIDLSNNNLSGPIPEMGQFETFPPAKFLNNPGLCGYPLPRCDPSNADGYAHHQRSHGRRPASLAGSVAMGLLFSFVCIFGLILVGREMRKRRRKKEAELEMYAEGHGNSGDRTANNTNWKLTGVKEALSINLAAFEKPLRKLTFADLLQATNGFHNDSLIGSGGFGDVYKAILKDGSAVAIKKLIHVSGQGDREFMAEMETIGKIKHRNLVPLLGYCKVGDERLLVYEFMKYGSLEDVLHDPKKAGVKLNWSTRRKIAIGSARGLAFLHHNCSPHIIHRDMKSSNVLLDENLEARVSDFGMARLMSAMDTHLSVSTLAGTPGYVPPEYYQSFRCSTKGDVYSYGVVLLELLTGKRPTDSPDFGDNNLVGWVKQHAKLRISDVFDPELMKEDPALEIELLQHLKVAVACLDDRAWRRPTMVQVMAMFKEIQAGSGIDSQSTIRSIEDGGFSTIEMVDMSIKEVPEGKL

| Variant | effect of a mutation on the interaction |
| --- | --- |
| S230A | decreasing interaction |
